For test [1], the target named is T1, human CD3 on primary human T cells (human, UniProt P07766 23-207; P04234 22-171).
T1 construct: whole, on cells; On cells the whole CD3/TCR complex is present
The experiment in a line: flow cytometry on primary human T cells, 37 C.

For test [2], the target named is T2, human B7-H4 on cells (human, UniProt Q7Z7D3 25-282).
T2 construct: whole, on cells; Tumour cell lines with endogenous B7-H4 or HEK293 transfected with human B7-H4
T2 sequence (looked up): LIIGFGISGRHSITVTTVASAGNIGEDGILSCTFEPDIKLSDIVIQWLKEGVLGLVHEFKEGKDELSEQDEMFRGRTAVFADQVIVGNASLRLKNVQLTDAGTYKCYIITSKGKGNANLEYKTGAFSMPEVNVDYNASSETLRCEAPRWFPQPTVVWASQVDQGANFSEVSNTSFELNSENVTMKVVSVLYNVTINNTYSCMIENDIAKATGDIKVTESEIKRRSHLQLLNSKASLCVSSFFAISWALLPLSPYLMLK
The experiment in a line: flow cytometry on MX-1 cells, 37 C. A general note: In flow cytometry, cells or beads pass a laser one at a time.

Test [3] deals with T2, human B7-H4 on cells. Nature of the test: cell-based or functional assay.

T1 sequence (P07766 23-207, chain 1 of 2): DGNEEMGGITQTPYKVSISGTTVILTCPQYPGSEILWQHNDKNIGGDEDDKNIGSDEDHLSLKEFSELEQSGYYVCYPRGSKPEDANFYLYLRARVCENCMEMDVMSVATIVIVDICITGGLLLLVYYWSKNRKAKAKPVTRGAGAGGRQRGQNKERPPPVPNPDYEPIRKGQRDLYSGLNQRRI
T1 sequence (P04234 22-171, chain 2 of 2): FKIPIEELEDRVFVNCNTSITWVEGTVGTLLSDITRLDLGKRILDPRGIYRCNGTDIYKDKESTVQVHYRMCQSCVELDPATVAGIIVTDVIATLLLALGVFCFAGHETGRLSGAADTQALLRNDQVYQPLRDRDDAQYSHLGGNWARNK

B1: B7-H4xCD3 bispecific antibody 1136 (bispecific antibody, IgG2)
heavy 1: EVQLVESGGGLVQPGGSLRLSCAASGGSFSGYYWNWIRQPPGKGLEWIGEINHSGSATYNPSLKSRVTISVDTAKNSFYLQMNSLRAEDTAVYYCARGLYNWNVDHWGQGTLVTVSSASTKGPSVFPLAPCSRSTSESTAALGCLVKDYFPEPVTVSWNSGALTSGVHTFPAVLQSSGLYSLSSVVTVPSSNFGTQTYTCNVDHKPSNTKVDKTVERKCEVECPECPAPPVAGPSVFLFPPKPKDTLMISRTPEVTCVVVAVSHEDPEVQFNWYVDGVEVHNAKTKPREEQFNSTFRVVSVLTVVHQDWLNGKEYKCKVSNKGLPSSIEKTISKTKGQPREPQVYTLPPSREEMTKNQVSLTCEVKGFYPSDIAVEWESNGQPENNYKTTPPMLDSDGSFFLYSKLTVDKSRWQQGNVFSCSVMHEALHNHYTQKSLSLSPG
light 1: DIQMTQSPSSLSASVGDRVTITCRASQGIRNDLGWYQQKPGKAPKRLIYAASSLQSGVPSRFSGSGSGTDFTLTISSLQPEDFATYYCLQHNAYPRTFGGGTKVEIKRTVAAPSVFIFPPSDEQLKSGTASVVCLLNNFYPREAKVQWKVDNALQSGNSQESVTEQDSKDSTYSLSSTLTLSKADYEKHKVYACEVTHQGLSSPVTKSFNRGEC
heavy 2: EVQLVESGGGLVQPGGSLRLSCAASGFTFSDYYMTWVRQAPGKGLEWVAFIRNQARGYTSDHNPSVKGRFTISRDNAKNSLYLQMNSLRAEDTAVYYCARDRPSYYVLDYWGQGTTVTVSSASTKGPSVFPLAPCSRSTSESTAALGCLVKDYFPEPVTVSWNSGALTSGVHTFPAVLQSSGLYSLSSVVTVPSSNFGTQTYTCNVDHKPSNTKVDKTVERKCRVRCPRCPAPPVAGPSVFLFPPKPKDTLMISRTPEVTCVVVAVSHEDPEVQFNWYVDGVEVHNAKTKPREEQFNSTFRVVSVLTVVHQDWLNGKEYKCKVSNKGLPSSIEKTISKTKGQPREPQVYTLPPSREEMTKNQVSLTCLVKGFYPSDIAVEWESNGQPENNYKTTPPMLDSDGSFFLYSRLTVDKSRWQQGNVFSCSVMHEALHNHYTQKSLSLSPGK
light 2: DIQMTQSPSSLSASVGDRVTITCTSSQSLFNVRSQKNYLAWYQQKPGKAPKLLIYWASTRESGVPSRFSGSGSGTDFTLTISSLQPEDFATYYCKQSYDLFTFGGGTKVEIKRTVAAPSVFIFPPSDEQLKSGTASVVCLLNNFYPREAKVQWKVDNALQSGNSQESVTEQDSKDSTYSLSSTLTLSKADYEKHKVYACEVTHQGLSSPVTKSFNRGEC
notes: Chains 1-2: B7-H4 arm; chains 3-4: CD3 arm; IgG2
What is called EC50 is the concentration that produces a half-maximal response. B1: the EC50 in test [1] came out at 5.7 nM; in the test with human B7-H4 on cells [2] it was 3.55 nM. In the test with human B7-H4 on cells [3], the “T cell mediated tumor cell killing EC50, HCC1954-Luc” value came to 500 nM. Moreover, in the test with human B7-H4 on cells [3], the “T cell mediated tumor cell killing, T47D” value came out at 3820.

The values are drawn from patent publication US20220017622A1 (Pfizer, published 2022).
